B1: SD3C (Spir SD and SC reversed around Linker 3) (domain or fragment)
chain: PREQLMESIRKGKELKQISDRQLGPPRMCEPSKKDAHAMILEFIRSRPPLKKA
B2: SC[gs]D (Spir SC and SD with Linker 3 replaced by five Gly-Ser repeats) (domain or fragment)
chain: KKDAHAMILEFIRSRPPLKKAGSGSGSGSGSPREQLMESIRKGKELKQITPPE

Target: latrunculin B bound actin (A. castellani actin monomer) (A. castellani)
Assay: fluorescence polarisation

Binder	stoichiometry N
B1	1 actin monomer per construct
B2	1 actin monomer per construct

— PMC4324353 (Journal of molecular biology, 2014)
